Sequences and labels used below:
B1: whirlin-NTR-PDZ1-Hp1 (aa residues 2-265) [mouse] / CDH23 C-terminal peptide (biotin-TTDS-VIMESPLEITEL) [modified: biotin-TTDS (trioxatridecan-succinamic acid spacer) on the N-terminus; biotin-TTDS (trioxatridecan-succinamic acid spacer) on … (parent complex)
chain 1: GAMGSTSNAQLDGLSVSSSSTGSLGSAAAAAGGGGGAGLRLLSANVRQLHQALTALLSEPEREQFTHCLNAYHARRNVFDLVRTLRVLLDSPVKRRLLPMLRLVIPRSDQLLFDQYTAEGLYLPATTPYRQPAWAAPDGAGPGEVRLVSLRRAKAHEGLGFSIRGGSEHGVGIYVSLVEPGSLAEKEGLRVGDQILRVNDKSLARVTHAEAVKALKGSKKLVLSVYSAGRIPGGYVTNHIYTWVDPQGRSTSPPSSLPQPHGSTLRQREDD
chain 2: VIMESPLEITEL
B2: whirlin-NTR-PDZ1-Hp1 (aa residues 2-265) [mouse] / PCDH15-CD1 C-terminal peptide (biotin-TTDS-GIDVQPHSQSTSL) [modified: biotin-TTDS (trioxatridecan-succinamic acid spacer) on the N-terminus; biotin-TTDS (trioxatridecan-succinamic acid … (parent complex)
chain 1: B1 chain 1
chain 2: GIDVQPHSQSTSL
B3: whirlin-NTR-PDZ1-Hp1 (aa residues 2-265) [mouse] / PCDH15-CD3 C-terminal peptide (biotin-TTDS-MGPWNSLHIPMTKL) [modified: biotin-TTDS (trioxatridecan-succinamic acid spacer) on the N-terminus; biotin-TTDS (trioxatridecan-succinamic acid … (parent complex)
chain 1: B1 chain 1
chain 2: MGPWNSLHIPMTKL
B4: whirlin-NTR-PDZ1-Hp1 (aa residues 2-265) [mouse] / PCDH15-CD2 C-terminal peptide (biotin-TTDS-GANSEQYNTAL) [modified: biotin-TTDS (trioxatridecan-succinamic acid spacer) on the N-terminus; biotin-TTDS (trioxatridecan-succinamic acid … (parent complex)
chain 1: B1 chain 1
chain 2: GANSEQYNTAL

The variants in the first test derive from B1. The test can be described thus: SPR; whirlin construct at 10 μM; peptide immobilized via N-terminal biotin tag; parent: 11; read off a plot. For orientation: SPR reads the build-up and loss of mass on a sensor chip optically.
In the case of chain 1 GAMGSTSNAQLDGLSVSSSSTGSLGSAAAAAGGGGGAGLRLLSANVRQLHQALTALLSEPEREQFTHCLNAYHARRNVFDLVRTLRVLLDSPVKRRLLPMLRLVIPRSDQLLFDQYTAEGLYLPATTPYRQPAWAAPDGAGPGEVRLVSLRRAKAHEGLGFSIRGGSEHGVGIYVSLVEPGSLAEKEGLRVGDQILRVNDKSLARVTYAEAVKALKGSKKLVLSVYSAGRIPGGYVTNHIYTWVDPQGRSTSPPSSLPQPHGSTLRQREDD [chain 1 H208Y], the response is around 1 % site occupancy.

As to chain 1 GAMGSTSNAQLDGLSVSSSSTGSLGSAAAAAGGGGGAGLRLLSANVRQLHQALTALLSEPEREQFTHCLNAYHARRNVFDLVRTLRVLLDSPVKRRLLPMLRLVIPRSDQLLFDQYTAEGLYLPATTPYRQPAWAAPDGAGPGEVRLVSLRRAKAHEGLAFSIRGGSEHGVGIYVSLVEPGSLAEKEGLRVGDQILRVNDKSLARVTHAEAVKALKGSKKLVLSVYSAGRIPGGYVTNHIYTWVDPQGRSTSPPSSLPQPHGSTLRQREDD [chain 1 G160A], the response was around 1.5 % site occupancy.

The variants in a further test derive from B2. The test can be described thus: SPR; whirlin construct at 10 μM; peptide immobilized via N-terminal biotin tag; parent: 23; read off a plot.
Turning to chain 1 GAMGSTSNAQLDGLSVSSSSTGSLGSAAAAAGGGGGAGLRLLSANVRQLHQALTALLSEPEREQFTHCLNAYHARRNVFDLVRTLRVLLDSPVKRRLLPMLRLVIPRSDQLLFDQYTAEGLYLPATTPYRQPAWAAPDGAGPGEVRLVSLRRAKAHEGLGFSIRGGSEHGVGIYVSLVEPGSLAEKEGLRVGDQILRVNDKSLARVTYAEAVKALKGSKKLVLSVYSAGRIPGGYVTNHIYTWVDPQGRSTSPPSSLPQPHGSTLRQREDD [chain 1 H208Y], the response was around -1 % site occupancy.

Consider chain 1 GAMGSTSNAQLDGLSVSSSSTGSLGSAAAAAGGGGGAGLRLLSANVRQLHQALTALLSEPEREQFTHCLNAYHARRNVFDLVRTLRVLLDSPVKRRLLPMLRLVIPRSDQLLFDQYTAEGLYLPATTPYRQPAWAAPDGAGPGEVRLVSLRRAKAHEGLAFSIRGGSEHGVGIYVSLVEPGSLAEKEGLRVGDQILRVNDKSLARVTHAEAVKALKGSKKLVLSVYSAGRIPGGYVTNHIYTWVDPQGRSTSPPSSLPQPHGSTLRQREDD [chain 1 G160A], for which the response is around 2 % site occupancy.

Another test covers variants of B3. Kind of test: SPR; whirlin construct at 10 μM; peptide immobilized via N-terminal biotin tag; parent: 29; read off a plot.
chain 1 GAMGSTSNAQLDGLSVSSSSTGSLGSAAAAAGGGGGAGLRLLSANVRQLHQALTALLSEPEREQFTHCLNAYHARRNVFDLVRTLRVLLDSPVKRRLLPMLRLVIPRSDQLLFDQYTAEGLYLPATTPYRQPAWAAPDGAGPGEVRLVSLRRAKAHEGLGFSIRGGSEHGVGIYVSLVEPGSLAEKEGLRVGDQILRVNDKSLARVTYAEAVKALKGSKKLVLSVYSAGRIPGGYVTNHIYTWVDPQGRSTSPPSSLPQPHGSTLRQREDD [chain 1 H208Y]: the response is around 1.5 % site occupancy.

For chain 1 GAMGSTSNAQLDGLSVSSSSTGSLGSAAAAAGGGGGAGLRLLSANVRQLHQALTALLSEPEREQFTHCLNAYHARRNVFDLVRTLRVLLDSPVKRRLLPMLRLVIPRSDQLLFDQYTAEGLYLPATTPYRQPAWAAPDGAGPGEVRLVSLRRAKAHEGLAFSIRGGSEHGVGIYVSLVEPGSLAEKEGLRVGDQILRVNDKSLARVTHAEAVKALKGSKKLVLSVYSAGRIPGGYVTNHIYTWVDPQGRSTSPPSSLPQPHGSTLRQREDD [chain 1 G160A], the response is around 9.5 % site occupancy.

In the next test the parent is B4. The test can be described thus: SPR; whirlin construct at 10 μM; peptide immobilized via N-terminal biotin tag; parent: 15; read off a plot.
With chain 1 GAMGSTSNAQLDGLSVSSSSTGSLGSAAAAAGGGGGAGLRLLSANVRQLHQALTALLSEPEREQFTHCLNAYHARRNVFDLVRTLRVLLDSPVKRRLLPMLRLVIPRSDQLLFDQYTAEGLYLPATTPYRQPAWAAPDGAGPGEVRLVSLRRAKAHEGLGFSIRGGSEHGVGIYVSLVEPGSLAEKEGLRVGDQILRVNDKSLARVTYAEAVKALKGSKKLVLSVYSAGRIPGGYVTNHIYTWVDPQGRSTSPPSSLPQPHGSTLRQREDD [chain 1 H208Y], the response was around 0.5 % site occupancy.

On to chain 1 GAMGSTSNAQLDGLSVSSSSTGSLGSAAAAAGGGGGAGLRLLSANVRQLHQALTALLSEPEREQFTHCLNAYHARRNVFDLVRTLRVLLDSPVKRRLLPMLRLVIPRSDQLLFDQYTAEGLYLPATTPYRQPAWAAPDGAGPGEVRLVSLRRAKAHEGLAFSIRGGSEHGVGIYVSLVEPGSLAEKEGLRVGDQILRVNDKSLARVTHAEAVKALKGSKKLVLSVYSAGRIPGGYVTNHIYTWVDPQGRSTSPPSSLPQPHGSTLRQREDD [chain 1 G160A], for which the response is around 2.5 % site occupancy.

Values taken from paper PMC7532178, “Interaction of protocadherin-15 with the scaffold protein whirlin supports its anchoring of hair-bundle lateral links in cochlear hair cells” (Scientific Reports, 2020).
